Reference: USRE47194 (Genentech, dated 2019)

Target: portions of the MUC16 extracellular domain (ECD) (UniProt Q8NEV4)
Assay: surface plasmon resonance with portions of the MUC16 ECD

Kd: 0.116 nM
B1: A117C thio hu anti-MUC16 3A5 humanized variant (antibody, human IgG1, kappa, V domains shown)
VH: EVQLVESGGGLVQPGGSLRLSCAASGYSITNDYAWNWVRQAPGKGLEWVGYISYSGYTTYNPSLKSRFTISRDTSKNTLYLQMNSLRAEDTAVYYCARWTSGLDYWGQGTLVTVSS
VL: DIQMTQSPSSLSASVGDRVTITCKASDLIHNWLAWYQQKPGKAPKLLIYGATSLETGVPSRFSGSGSGTDFTLTISSLQPEDFATYYCQQYWTTPFTFGQGTKVEIKR
notes: Full-length IgG expressed in CHO cells; Kabat A114C, Eu A118C) change; also called thio hu anti-MUC16 HC A117C 3A5; A117C thio hu 3A5
